Results reported in paper PMC9352680, “A comprehensive thermodynamic model for RNA binding by the Saccharomyces cerevisiae Pumilio protein PUF4”.

T1: PUF4 RNA-binding domain (Saccharomyces cerevisiae, UniProt P25339 537-888)
T1 sequence: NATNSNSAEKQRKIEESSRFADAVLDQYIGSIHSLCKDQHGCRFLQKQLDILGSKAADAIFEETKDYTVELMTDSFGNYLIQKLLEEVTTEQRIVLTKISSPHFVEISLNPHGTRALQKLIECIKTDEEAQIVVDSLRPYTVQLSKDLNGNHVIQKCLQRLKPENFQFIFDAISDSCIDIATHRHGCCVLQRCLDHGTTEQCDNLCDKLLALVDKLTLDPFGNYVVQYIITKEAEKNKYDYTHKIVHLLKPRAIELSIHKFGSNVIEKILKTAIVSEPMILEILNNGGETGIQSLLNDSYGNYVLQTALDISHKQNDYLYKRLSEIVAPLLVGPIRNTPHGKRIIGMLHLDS


Target: T1, PUF4 RNA-binding domain
Assay: Mg; RNA-MaP; 20 mM Na-HEPES pH 7.4, 30 mM KOAc, 0.75 mM MgCl2, 0.1% Tween-20, 5% glycerol, 0.1 mg/mL BSA, 2 mM DTT; 25 C; 0.0125-409.6 nM protein
Settings: tags: N-His6-TEV cleaved; C-SNAP kept, Cy3B-labelled; label: tethered on chip by stalled RNA polymerase

Binder	Kd [nM]
Id_ii_S2_P5E.4_K5.3_C5.2_[C-2G]_H5.3_A5.1_F5.1_T5.2_[T11A]_[A12T] (ssRNA) RNA: UUUGAUUAAUAUGAUAUCGUUCUUUCUGUACACUUAUUAAUUUCUUUCUCGAUAUCAUAUUAAUCUUU	1.37
Id_ii_S2_P5E.4_K5.3_C5.2_[C-2A]_[T-1C]_H5.3_A5.1_F5.1_T5.2_[A12T] (ssRNA) RNA: UUUGAUUAAUAUGAUAUCGUUCUUUCUACACACUUAUUAUUUUCUUUCUCGAUAUCAUAUUAAUCUUU	> 2300
Id_ii_S2_P5E.4_K5.3_C5.2_[C-2A]_[T-1C]_H5.3_A5.1_F5.1_T5.2_[T11C]_[A12C] (ssRNA) RNA: UUUGAUUAAUAUGAUAUCGUUCUUUCUACACACUUAUUACCUUCUUUCUCGAUAUCAUAUUAAUCUUU	> 2300
Id_ii_S2_P5E.4_K5.3_C5.2_[C-2A]_[T-1C]_H5.3_A5.1_F5.1_T5.2_[A12C] (ssRNA) RNA: UUUGAUUAAUAUGAUAUCGUUCUUUCUACACACUUAUUAUCUUCUUUCUCGAUAUCAUAUUAAUCUUU	> 2300
Id_ii_S2_P5E.4_K5.3_C5.2_[C-2A]_[T-1C]_H5.3_A5.1_F5.1_T5.2_[T11A]_[A12C] (ssRNA) RNA: UUUGAUUAAUAUGAUAUCGUUCUUUCUACACACUUAUUAACUUCUUUCUCGAUAUCAUAUUAAUCUUU	> 2300
Id_ii_S2_P5E.4_K5.3_C5.2_[C-2T]_[T-1A]_H5.3_A5.1_F5.1_T5.2_[A12C] (ssRNA) RNA: UUUGAUUAAUAUGAUAUCGUUCUUUCUUAACACUUAUUAUCUUCUUUCUCGAUAUCAUAUUAAUCUUU	> 2300
Id_ii_S2_P5E.4_K5.3_C5.2_[C-2A]_[T-1A]_H5.3_A5.1_F5.1_T5.2_[T11C]_[A12G] (ssRNA) RNA: UUUGAUUAAUAUGAUAUCGUUCUUUCUAAACACUUAUUACGUUCUUUCUCGAUAUCAUAUUAAUCUUU	> 2300
Id_ii_S2_P5E.4_K5.3_C5.2_[C-2T]_[T-1C]_H5.3_A5.1_F5.1_T5.2_[T11C]_[A12C] (ssRNA) RNA: UUUGAUUAAUAUGAUAUCGUUCUUUCUUCACACUUAUUACCUUCUUUCUCGAUAUCAUAUUAAUCUUU	> 2300
Id_ii_S2_P5E.4_K5.3_C5.2_[C-2T]_H5.3_A5.1_F5.1_T5.2_[T11C]_[A12C] (ssRNA) RNA: UUUGAUUAAUAUGAUAUCGUUCUUUCUUUACACUUAUUACCUUCUUUCUCGAUAUCAUAUUAAUCUUU	1930
Id_ii_S2_P5E.4_K5.3_C5.2_[C-2T]_H5.3_A5.1_F5.1_T5.2_[T11A]_[A12C] (ssRNA) RNA: UUUGAUUAAUAUGAUAUCGUUCUUUCUUUACACUUAUUAACUUCUUUCUCGAUAUCAUAUUAAUCUUU	> 2300
Id_ii_S2_P5E.4_K5.3_C5.2_[C-2T]_[T-1A]_H5.3_A5.1_F5.1_T5.2_[T11A]_[A12C] (ssRNA) RNA: UUUGAUUAAUAUGAUAUCGUUCUUUCUUAACACUUAUUAACUUCUUUCUCGAUAUCAUAUUAAUCUUU	> 2300
Id_ii_S2_P5E.4_K5.3_C5.2_[C-2A]_[T-1A]_H5.3_A5.1_F5.1_T5.2_[T11C] (ssRNA) RNA: UUUGAUUAAUAUGAUAUCGUUCUUUCUAAACACUUAUUACAUUCUUUCUCGAUAUCAUAUUAAUCUUU	> 2300
Id_ii_S2_P5E.4_K5.3_C5.2_[C-2T]_H5.3_A5.1_F5.1_T5.2_[T11A]_[A12T] (ssRNA) RNA: UUUGAUUAAUAUGAUAUCGUUCUUUCUUUACACUUAUUAAUUUCUUUCUCGAUAUCAUAUUAAUCUUU	> 2300
Id_ii_S2_P5E.4_K5.3_C5.2_[C-2G]_H5.3_A5.1_F5.1_T5.2_[A12C] (ssRNA) RNA: UUUGAUUAAUAUGAUAUCGUUCUUUCUGUACACUUAUUAUCUUCUUUCUCGAUAUCAUAUUAAUCUUU	1.12
Id_ii_S2_P5E.4_K5.3_C5.2_[C-2T]_[T-1C]_H5.3_A5.1_F5.1_T5.2_[T11C] (ssRNA) RNA: UUUGAUUAAUAUGAUAUCGUUCUUUCUUCACACUUAUUACAUUCUUUCUCGAUAUCAUAUUAAUCUUU	> 2300
Id_ii_S2_P5E.4_K5.3_C5.2_[C-2T]_H5.3_A5.1_F5.1_T5.2_[A12C] (ssRNA) RNA: UUUGAUUAAUAUGAUAUCGUUCUUUCUUUACACUUAUUAUCUUCUUUCUCGAUAUCAUAUUAAUCUUU	1890
Id_ii_S2_P5E.4_K5.3_C5.2_[C-2G]_H5.3_A5.1_F5.1_T5.2_[T11A] (ssRNA) RNA: UUUGAUUAAUAUGAUAUCGUUCUUUCUGUACACUUAUUAAAUUCUUUCUCGAUAUCAUAUUAAUCUUU	1.43
Id_ii_S2_P5E.4_K5.3_C5.2_[C-2A]_[T-1A]_H5.3_A5.1_F5.1_T5.2_[T11C]_[A12C] (ssRNA) RNA: UUUGAUUAAUAUGAUAUCGUUCUUUCUAAACACUUAUUACCUUCUUUCUCGAUAUCAUAUUAAUCUUU	> 2300
Id_ii_S2_P5E.4_K5.3_C5.2_[C-2A]_[T-1C]_H5.3_A5.1_F5.1_T5.2_[T11C] (ssRNA) RNA: UUUGAUUAAUAUGAUAUCGUUCUUUCUACACACUUAUUACAUUCUUUCUCGAUAUCAUAUUAAUCUUU	> 2300
Id_ii_S2_P5E.4_K5.3_C5.2_[C-2T]_[T-1C]_H5.3_A5.1_F5.1_T5.2_[T11A]_[A12T] (ssRNA) RNA: UUUGAUUAAUAUGAUAUCGUUCUUUCUUCACACUUAUUAAUUUCUUUCUCGAUAUCAUAUUAAUCUUU	> 2300
Id_ii_S2_P5E.4_K5.3_C5.2_[C-2T]_[T-1C]_H5.3_A5.1_F5.1_T5.2_[A12C] (ssRNA) RNA: UUUGAUUAAUAUGAUAUCGUUCUUUCUUCACACUUAUUAUCUUCUUUCUCGAUAUCAUAUUAAUCUUU	> 2300

Binder	Kd [nM]
Id_ii_S2_P5E.4_K5.3_C5.2_[C-2T]_[T-1A]_H5.3_A5.1_F5.1_T5.2_[T11A]_[A12T] (ssRNA) RNA: UUUGAUUAAUAUGAUAUCGUUCUUUCUUAACACUUAUUAAUUUCUUUCUCGAUAUCAUAUUAAUCUUU	> 2300
Id_ii_S2_P5E.4_K5.3_C5.2_[C-2T]_[T-1A]_H5.3_A5.1_F5.1_T5.2_[T11C]_[A12G] (ssRNA) RNA: UUUGAUUAAUAUGAUAUCGUUCUUUCUUAACACUUAUUACGUUCUUUCUCGAUAUCAUAUUAAUCUUU	> 2300
Id_ii_S2_P5E.4_K5.3_C5.2_[C-2T]_H5.3_A5.1_F5.1_T5.2_[T11C]_[A12T] (ssRNA) RNA: UUUGAUUAAUAUGAUAUCGUUCUUUCUUUACACUUAUUACUUUCUUUCUCGAUAUCAUAUUAAUCUUU	1530
Id_ii_S2_P5E.4_K5.3_C5.2_[C-2T]_H5.3_A5.1_F5.1_T5.2_[T11C]_[A12G] (ssRNA) RNA: UUUGAUUAAUAUGAUAUCGUUCUUUCUUUACACUUAUUACGUUCUUUCUCGAUAUCAUAUUAAUCUUU	> 2300
Id_ii_S2_P5E.4_K5.3_C5.2_[C-2T]_[T-1C]_H5.3_A5.1_F5.1_T5.2 (ssRNA) RNA: UUUGAUUAAUAUGAUAUCGUUCUUUCUUCACACUUAUUAUAUUCUUUCUCGAUAUCAUAUUAAUCUUU	751
Id_ii_S2_P5E.4_K5.3_C5.2_[C-2T]_[T-1C]_H5.3_A5.1_F5.1_T5.2_[T11C]_[A12T] (ssRNA) RNA: UUUGAUUAAUAUGAUAUCGUUCUUUCUUCACACUUAUUACUUUCUUUCUCGAUAUCAUAUUAAUCUUU	> 2300
Id_ii_S2_P5E.4_K5.3_C5.2_[C-2A]_[T-1C]_H5.3_A5.1_F5.1_T5.2_[T11G]_[A12C] (ssRNA) RNA: UUUGAUUAAUAUGAUAUCGUUCUUUCUACACACUUAUUAGCUUCUUUCUCGAUAUCAUAUUAAUCUUU	> 2300
Id_ii_S2_P5E.4_K5.3_C5.2_[C-2G]_H5.3_A5.1_F5.1_T5.2 (ssRNA) RNA: UUUGAUUAAUAUGAUAUCGUUCUUUCUGUACACUUAUUAUAUUCUUUCUCGAUAUCAUAUUAAUCUUU	2.21
Id_ii_S2_P5E.4_K5.3_C5.2_[C-2T]_[T-1A]_H5.3_A5.1_F5.1_T5.2 (ssRNA) RNA: UUUGAUUAAUAUGAUAUCGUUCUUUCUUAACACUUAUUAUAUUCUUUCUCGAUAUCAUAUUAAUCUUU	790
Id_ii_S2_P5E.4_K5.3_C5.2_[C-2A]_[T-1C]_H5.3_A5.1_F5.1_T5.2_[T11A] (ssRNA) RNA: UUUGAUUAAUAUGAUAUCGUUCUUUCUACACACUUAUUAAAUUCUUUCUCGAUAUCAUAUUAAUCUUU	> 2300
Id_ii_S2_P5E.4_K5.3_C5.2_[C-2T]_H5.3_A5.1_F5.1_T5.2_[T11G]_[A12C] (ssRNA) RNA: UUUGAUUAAUAUGAUAUCGUUCUUUCUUUACACUUAUUAGCUUCUUUCUCGAUAUCAUAUUAAUCUUU	> 2300
Id_ii_S2_P5E.4_K5.3_C5.2_[C-2T]_H5.3_A5.1_F5.1_T5.2 (ssRNA) RNA: UUUGAUUAAUAUGAUAUCGUUCUUUCUUUACACUUAUUAUAUUCUUUCUCGAUAUCAUAUUAAUCUUU	722
Id_ii_S2_P5E.4_K5.3_C5.2_[C-2A]_[T-1C]_H5.3_A5.1_F5.1_T5.2 (ssRNA) RNA: UUUGAUUAAUAUGAUAUCGUUCUUUCUACACACUUAUUAUAUUCUUUCUCGAUAUCAUAUUAAUCUUU	754
Id_ii_S2_P5E.4_K5.3_C5.2_[C-2T]_[T-1C]_H5.3_A5.1_F5.1_T5.2_[T11C]_[A12G] (ssRNA) RNA: UUUGAUUAAUAUGAUAUCGUUCUUUCUUCACACUUAUUACGUUCUUUCUCGAUAUCAUAUUAAUCUUU	> 2300
Id_ii_S2_P5E.4_K5.3_C5.2_[C-2G]_H5.3_A5.1_F5.1_T5.2_[A12T] (ssRNA) RNA: UUUGAUUAAUAUGAUAUCGUUCUUUCUGUACACUUAUUAUUUUCUUUCUCGAUAUCAUAUUAAUCUUU	1.25
Id_ii_S2_P5E.4_K5.3_C5.2_[C-2A]_[T-1C]_H5.3_A5.1_F5.1_T5.2_[T11C]_[A12G] (ssRNA) RNA: UUUGAUUAAUAUGAUAUCGUUCUUUCUACACACUUAUUACGUUCUUUCUCGAUAUCAUAUUAAUCUUU	> 2300
Id_ii_S2_P5E.4_K5.3_C5.2_[C-2T]_H5.3_A5.1_F5.1_T5.2_[A12T] (ssRNA) RNA: UUUGAUUAAUAUGAUAUCGUUCUUUCUUUACACUUAUUAUUUUCUUUCUCGAUAUCAUAUUAAUCUUU	1990
Id_ii_S2_P5E.4_K5.3_C5.2_[C-2T]_[T-1A]_H5.3_A5.1_F5.1_T5.2_[T11C] (ssRNA) RNA: UUUGAUUAAUAUGAUAUCGUUCUUUCUUAACACUUAUUACAUUCUUUCUCGAUAUCAUAUUAAUCUUU	> 2300
UCUCUUUGUAAUAUAAUCUCUU (ssRNA) [Ib_S1_P5E.1_K5.1_C5.1_H5.1_A5.1_[T5A]_F5.1_[T9A]_T5.1]	3.3
UCUCUUUGUAUCAUGAUCUCUU (ssRNA) [Ib_S1_P5E.1_K5.1_C5.1_H5.1_A5.1_[T6C]_F5.1_[T9G]_T5.1]	24.9
UCUCUUUGUAAUAUCAUCUCUU (ssRNA) [Ic_S1_P5E.1_K5.1_C5.1_H5.1_A5.1_[T5A]_F5.1_[T9C]_T5.1]	26.1
